Test results from PMC6546432.

Assays:
[1] = target: dog K12del HA-tagged retinol-binding protein (^HARBP) (dog); test: non-reducing SDS-PAGE and western blot; conditioned media of transfected HeLa cells; no beta-mercaptoethanol; anti-HA, LI-COR
[2] = target: dog K12del retinol-binding protein (RBP) in serum (dog (endogenous in serum)); test: non-reducing SDS-PAGE and western blot; dog serum; non-reducing conditions; gels treated with beta-mercaptoethanol before transfer

| dimer fraction [1] | stoichiometry N [2] | Substance |
| --- | --- | --- |
| 0.89 | – | dog K12del HA-tagged retinol-binding protein (^HARBP) (natural protein) |
| – | 2 | dog K12del retinol-binding protein (RBP) in serum (natural protein) |
